The Immune Epitope Database (IEDB)

Columns and labels:
HLA-B*15:01 [1] = assay: IEDB peptide-MHC binding, purified MHC/direct/fluorescence; filed as Kd, often an IC50 or EC50 that approximates it; ≥ and ≤ were set here for values at or beyond the usual limits of such assays
HLA-B*40:01 [2] = assay: as above; conditions: source organism: SARS-CoV1
HLA-B*58:01 [3] = assay: as above; conditions: source organism: SARS-CoV1
HLA-A*01:01 [4] = assay: as above; conditions: source organism: SARS-CoV1
HLA-C*08:02 = assay: as above
HLA-A*26:01 [5] = assay: as above
HLA-A*29:02 = assay: IEDB peptide-MHC binding, purified MHC/competitive/radioactivity; filed as Kd, often an IC50 or EC50 that approximates it; ≥ and ≤ were set here for values at or beyond the usual limits of such assays; conditions: source organism: SARS coronavirus Tor2
HLA-A*30:02 = assay: as above; conditions: source organism: SARS coronavirus Tor2
HLA-A*23:01 = assay: as above; conditions: source organism: SARS coronavirus Tor2
HLA-A*24:02 = assay: as above; conditions: source organism: SARS coronavirus Tor2
HLA-B*15:01 [6] = assay: IEDB peptide-MHC binding, purified MHC/competitive/fluorescence; ≥ and ≤ were set here for values at or beyond the usual limits of such assays; conditions: source organism: Vaccinia virus Copenhagen
HLA-A*01:01 [7] = assay: as above
HLA-A*31:01 = assay: IEDB peptide-MHC binding, purified MHC/competitive/radioactivity; filed as Kd, often an IC50 or EC50 that approximates it; ≥ and ≤ were set here for values at or beyond the usual limits of such assays; conditions: source organism: Vaccinia virus WR
HLA-A*11:01 = assay: as above; conditions: source organism: Vaccinia virus WR
HLA-A*68:01 = assay: as above; conditions: source organism: Vaccinia virus WR
HLA-A*03:01 [8] = assay: as above; conditions: source organism: Vaccinia virus WR
HLA-A*33:01 = assay: as above; conditions: source organism: Vaccinia virus WR
HLA-C*12:03 = assay: IEDB peptide-MHC binding, purified MHC/direct/fluorescence; filed as Kd, often an IC50 or EC50 that approximates it; ≥ and ≤ were set here for values at or beyond the usual limits of such assays
HLA-B*07:02 [9] = assay: as above; conditions: source organism: Macaca fascicularis
HLA-B*15:01 [10] = assay: IEDB peptide-MHC binding, purified MHC/competitive/fluorescence; filed as Kd, often an IC50 or EC50 that approximates it; ≥ and ≤ were set here for values at or beyond the usual limits of such assays; conditions: source organism: Homo sapiens
HLA-A*02:01 = assay: as above
HLA-B*18:01 [11] = assay: as above; conditions: source organism: Homo sapiens
HLA-B*51:01 [12] = assay: as above; conditions: source organism: Homo sapiens
HLA-C*03:03 = assay: IEDB peptide-MHC binding, purified MHC/direct/fluorescence; filed as Kd, often an IC50 or EC50 that approximates it; ≥ and ≤ were set here for values at or beyond the usual limits of such assays
HLA-B*18:01 [13] = assay: as above; conditions: source organism: Vibrio cholerae O1 biovar El Tor
HLA-A*03:01 [14] = assay: as above; conditions: source organism: Vibrio cholerae O1 biovar El Tor
HLA-B*27:03 = assay: as above; conditions: source organism: Vibrio cholerae O1 biovar El Tor
HLA-B*46:01 = assay: as above; conditions: source organism: Vibrio cholerae O1 biovar El Tor
HLA-A*02:19 = assay: as above; conditions: source organism: Vibrio cholerae O1 biovar El Tor
HLA-B*51:01 [15] = assay: as above; conditions: source organism: Vibrio cholerae O1 biovar El Tor
HLA-B*40:01 [16] = assay: IEDB peptide-MHC binding, purified MHC/competitive/fluorescence; filed as Kd, often an IC50 or EC50 that approximates it; ≥ and ≤ were set here for values at or beyond the usual limits of such assays; conditions: source organism: Escherichia coli 536
HLA-B*39:01 = assay: as above; conditions: source organism: Escherichia coli 536
HLA-B*53:01 = assay: IEDB peptide-MHC binding, purified MHC/competitive/radioactivity; filed as Kd, often an IC50 or EC50 that approximates it; ≥ and ≤ were set here for values at or beyond the usual limits of such assays; conditions: source organism: Vaccinia virus WR
HLA-B*54:01 = assay: as above; conditions: source organism: Vaccinia virus WR
HLA-B*35:01 = assay: as above; conditions: source organism: Vaccinia virus WR
HLA-B*07:02 [17] = assay: as above; conditions: source organism: Vaccinia virus WR
HLA-B*51:01 [18] = assay: as above; conditions: source organism: Vaccinia virus WR
HLA-C*15:02 = assay: IEDB peptide-MHC binding, purified MHC/direct/fluorescence; filed as Kd, often an IC50 or EC50 that approximates it; ≥ and ≤ were set here for values at or beyond the usual limits of such assays; conditions: source organism: Yersinia pestis Nepal516
HLA-C*14:02 = assay: as above; conditions: source organism: Yersinia pestis Nepal516
HLA-C*05:01 = assay: as above; conditions: source organism: Yersinia pestis Nepal516
HLA-C*06:02 = assay: as above; conditions: source organism: Yersinia pestis Nepal516
HLA-B*08:01 = assay: IEDB peptide-MHC binding, purified MHC/competitive/fluorescence; filed as Kd, often an IC50 or EC50 that approximates it; ≥ and ≤ were set here for values at or beyond the usual limits of such assays; conditions: source organism: Yersinia pestis Nepal516
HLA-B*58:01 [19] = assay: as above; conditions: source organism: Escherichia coli APEC O1
HLA-A*01:01 [20] = assay: as above; conditions: source organism: Escherichia coli APEC O1
HLA-A*26:01 [21] = assay: as above; conditions: source organism: Escherichia coli APEC O1
[22] = source organism: Vaccinia virus Copenhagen
[23] = source organism: Vibrio cholerae O1 biovar El Tor
[24] = source organism: Vibrio cholerae B33

## FADINGKLY
HLA-B*15:01 [1]; source organism: SARS-CoV1
  Kd: 3140 nM
HLA-B*40:01 [2]
  Kd: ≥ 71300 nM
HLA-B*58:01 [3]
  Kd: 2250 nM
HLA-A*01:01 [4]
  Kd: 191 nM
HLA-C*08:02; source organism: SARS-CoV1
  Kd: ≤ 1 nM
HLA-A*26:01 [5]; source organism: SARS-CoV1
  Kd: 562 nM
HLA-A*29:02
  Kd: 17 nM
HLA-A*30:02
  Kd: 1600 nM
HLA-A*23:01
  Kd: ≥ 77800 nM
HLA-A*24:02
  Kd: ≥ 77600 nM

## YVTLNASQY
HLA-B*15:01 [6]
  IC50: 8060 nM
HLA-A*01:01 [7]; [22]
  IC50: 17100 nM
HLA-A*31:01
  Kd: ≥ 51400 nM
HLA-A*11:01
  Kd: 1120 nM
HLA-A*68:01
  Kd: 10.7 nM
HLA-A*03:01 [8]
  Kd: 4770 nM
HLA-A*33:01
  Kd: ≥ 77700 nM

## FAAPHRGVA
HLA-C*12:03; source organism: Homo sapiens
  Kd: ≤ 1 nM
HLA-B*07:02 [9]
  Kd: 3.1 nM
HLA-B*15:01 [10]
  Kd: ≥ 20000 nM
HLA-A*02:01; source organism: Homo sapiens
  Kd: ≥ 20000 nM
HLA-B*18:01 [11]
  Kd: ≥ 20000 nM
HLA-B*51:01 [12]
  Kd: ≥ 20000 nM

## FATPAFFLI
HLA-B*15:01 [1]; [23]
  Kd: ≥ 20000 nM
HLA-C*03:03; [24]
  Kd: ≤ 1 nM
HLA-B*18:01 [13]
  Kd: ≥ 20000 nM
HLA-A*03:01 [14]
  Kd: ≥ 20000 nM
HLA-B*27:03
  Kd: ≥ 20000 nM
HLA-C*08:02; [24]
  Kd: 198 nM
HLA-B*46:01
  Kd: ≥ 20000 nM
HLA-A*26:01 [5]; [23]
  Kd: ≥ 20000 nM
HLA-A*02:19
  Kd: ≥ 20000 nM
HLA-B*51:01 [15]
  Kd: 859 nM

## EEQQSMLAL
HLA-B*40:01 [16]
  Kd: 8.3 nM
HLA-B*39:01
  Kd: 27 nM

## RVYEALYYV
HLA-C*12:03; [22]
  Kd: 26 nM
HLA-C*03:03; [22]
  Kd: 1240 nM
HLA-C*08:02; [22]
  Kd: ≥ 20000 nM
HLA-A*02:01; [22]
  Kd: 0.8 nM
HLA-A*31:01
  Kd: 13.7 nM
HLA-A*11:01
  Kd: 80.2 nM
HLA-A*68:01
  Kd: ≥ 77700 nM
HLA-B*53:01
  Kd: ≥ 78200 nM
HLA-A*03:01 [8]
  Kd: 717 nM
HLA-A*33:01
  Kd: ≥ 77700 nM
HLA-B*54:01
  Kd: 6410 nM
HLA-B*35:01
  Kd: ≥ 77400 nM
HLA-B*07:02 [17]
  Kd: ≥ 53800 nM
HLA-B*51:01 [18]
  Kd: ≥ 67800 nM

## SSDPGTNTT
HLA-A*01:01 [7]; source organism: Zaire ebolavirus
  IC50: ≥ 162000 nM

## YVIKKSSPL
HLA-C*15:02
  Kd: 3950 nM
HLA-C*03:03; source organism: Yersinia pestis Nepal516
  Kd: 2 nM
HLA-C*14:02
  Kd: 163 nM
HLA-C*05:01
  Kd: ≥ 20000 nM
HLA-C*06:02
  Kd: ≥ 20000 nM
HLA-B*08:01
  Kd: 196 nM

## YTTDVNQLY
HLA-C*08:02; source organism: Escherichia coli APEC O1
  Kd: 1010 nM
HLA-B*58:01 [19]
  Kd: 36 nM
HLA-A*01:01 [20]
  Kd: 5.1 nM
HLA-A*26:01 [21]
  Kd: 16 nM
